Test results as given in patent US6830925.

T1: Syntide 2
T1 chain: PLARTLSVAGLPGKK

T2: Calmodulin Dependent Protein Kinase Substrate
T2 chain: PLSRTLSVSS

T3: CREBtide
T3 chain: KRREILSRRPSYR


Assays:
Syntide 2 = target: T1, Syntide 2
[1] = target: T2, Calmodulin Dependent Protein Kinase …
[2] = target: calmodulin (CalBiochem), P0DP23
CREBtide = target: T3, CREBtide

Protein | in vitro kinase assay (32P incorporation) with immunoprecipitated CaMK-X1 (Syntide 2) | in vitro kinase assay (32P incorporation) with immunoprecipitated CaMK-X1 [1] | in vitro kinase assay (32P incorporation into peptides) with and without calmodulin [2] | in vitro kinase assay (32P incorporation) with immunoprecipitated CaMK-X1 (CREBtide) | in vitro kinase assay (32P incorporation) with Ni2+ purified CaMK-X1 (Syntide 2) | in vitro kinase assay (32P incorporation) with Ni2+ purified CaMK-X1 [1] | in vitro kinase assay (rate of peptide phosphorylation) with and without Ca2+ and calmodulin [2] | in vitro kinase assay (32P incorporation) with Ni2+ purified CaMK-X1 (CREBtide)
Xpress-CaMK-X1 fusion protein (CaMK-X1 coding sequence fused to the Xpress epitope, stably expressed in HEK293 cells) (protein) MGRKEEDDCSSWKKQTTNIRKTFIFMEVLGSGAFSEVFLVKQRLTGKLFALKCIKKSPAFRDSSLENEIAVLKKIKHENIVTLEDIYESTTHYYLVMQLVSGGELFDRILERGVYTEKDASLVIQQVLSAVKYLHENGIVHRDLKPENLLYLTPEENSKIMITDFGLSKMEQNGIMSTACGTPGYVAPEVLAQKPYSKAVDCWSIGVITYILLCGYPPFYEETESKLFEKIKEGYYEFESPFWDDISESAKDFICHLLEKDPNERYTCEKALSHPWIDGNTALHRDIYPSVSLQIQKNFAKSKWRQAFNAAAVVHHMRKLHMNLHSPGVRPEVENRPPETQASETSRPSSPEITITEAPVLDHSVALPALTQLPCQHGRRPTAPGGRSLNCLVNGSLHISSSLVPMHQGSLAAGPCGCCSSCLNIGSKGKSSYCSEPTLLKKANKKQNFKSEVMVPVKASGSSHCRAGQTGVCLIM | CaMK-X1 phosphorylated CREBtide and Syntide 2 in vitro | In contrast, CaMK-X1 could not phosphorylate control peptide | The degree of phosphorylation is augmented in the presence of calmodulin | CaMK-X1 phosphorylated CREBtide and Syntide 2 in vitro | – | – | – | –
Histidine tagged CaMK-X1 expressed in Sf9 cells and purified with a Ni2+ affinity column (protein) MGRKEEDDCSSWKKQTTNIRKTFIFMEVLGSGAFSEVFLVKQRLTGKLFALKCIKKSPAFRDSSLENEIAVLKKIKHENIVTLEDIYESTTHYYLVMQLVSGGELFDRILERGVYTEKDASLVIQQVLSAVKYLHENGIVHRDLKPENLLYLTPEENSKIMITDFGLSKMEQNGIMSTACGTPGYVAPEVLAQKPYSKAVDCWSIGVITYILLCGYPPFYEETESKLFEKIKEGYYEFESPFWDDISESAKDFICHLLEKDPNERYTCEKALSHPWIDGNTALHRDIYPSVSLQIQKNFAKSKWRQAFNAAAVVHHMRKLHMNLHSPGVRPEVENRPPETQASETSRPSSPEITITEAPVLDHSVALPALTQLPCQHGRRPTAPGGRSLNCLVNGSLHISSSLVPMHQGSLAAGPCGCCSSCLNIGSKGKSSYCSEPTLLKKANKKQNFKSEVMVPVKASGSSHCRAGQTGVCLIM | – | – | – | – | CREBtide and Syntide 2 are phosphorylated by the purified CaMK-X1 | Syntide 2 and CREBtide had higher incorporation of ^32P than the control peptide | The rate of phosphorylation is increased in the presence of Ca^2+ and calmodulin | CREBtide and Syntide 2 are phosphorylated by the purified CaMK-X1
